Tests used:
actin [1] = target: actin (UniProt P68135)
actin [2] = target: actin (UniProt P68135); test: co-sedimentation; MYO3A (0.5 µM) equilibrated with actin (0-60 µM) in KMg50 buffer (50 mM KCl, 1 mM EGTA, 1 mM MgCl2, 10 mM imidazole pH 7.0, 1 mM DTT) with ATP regeneration system, 1 mM ATP added, centrifuged 10 min at 25 °C; fraction bound from GFP fluorescence of the supernatant and from Coomassie SDS-PAGE, hyperbolic fit; steady-state actin affinity (K_Actin) in the presence of ATP

| K (ATPase): actin concentration at which the steady-state actin-activated ATPase activity is one-half maximal (KMg50 buffer, 25 °C) (actin [1]) [µM] | Kd (actin [2]) [µM] | Substance |
| --- | --- | --- |
| < 0.77 | 2.21 | MYO3AΔK 2IQ c-GFP L697W (from UniProt Q8NEV4-1 1-1616) (domain or fragment) |
| 1.93 | 4.69 | MYO3AΔK 2IQ c-GFP WT (from UniProt Q8NEV4-1 1-1616) (domain or fragment) |
